Measured values: patent US20250320295A1 (INHIBRX BIOSCIENCES, published 2025)
Numbering of substitutions follows the chain as printed.

Legend:
Human CD8a [1] = target: T1, Human CD8a (human, UniProt P01732 22-235); experiment: flow cytometry, isolated human T cells, CD3+CD4- gate
T1 construct: also called CD8α; human CD8a-FL
Procedure: (§1) Binding of parental and two humanized CD8a-binding polypeptides described above was assessed by flow cytometry on isolated human T cells and on isolated cynomolgus monkey PBMC. The isolated cells were plated in a 96-well plate at 200,000 cells per well for cynomolgus monkey PBMC, and 50,000 cells per well for human T cells in FACS buffer (PBS, 1% BSA, 0.1% NaN₃, pH 7.4). […] FACS buffer alone was used as a secondary antibody-only control. Polypeptide dilutions were added to an equal volume of cells, and assay plates were incubated for 30 minutes at 4° C. After washing twice with 150 μL of FACS buffer per well, the cells were resuspended in FACS buffer with fluorescently-labeled anti-human antibody diluted 1:1000 to detect CD8α binding, and fluorescently labeled anti-CD3 antibody (clone SP34.2) diluted 1:40, and anti-CD4 antibody (clone OKT4) diluted 1:100. Assay plates were incubated at 4° C. for 20 minutes. After one additional wash with 150 μL of FACS buffer, CD8α binding was detected by flow cytometry on CD3+CD4− cells. Binding was measured on these cell populations as mean fluorescence at 647 nm. The data was plotted and analyzed using GraphPad Prism analysis software. Flow cytometric detection was performed on an ACEA Biosciences Novocyte-Quanteon Flow Cytometer. The results are shown in Table 6 and 7 and in FIGS. 4A-B.

Cynomolgus monkey CD8a [2] = target: T2, Cynomolgus monkey CD8a (cynomolgus monkey); experiment: flow cytometry, cynomolgus PBMC, CD3+CD4- gate
T2 construct: whole, on cells; On transfected HEK293F cells (full length) or natively on cynomolgus PBMC T cells; also called cynomolgus CD8a-FL; cynomolgus monkey CD8α
Procedure: as §1

Human CD8a [3] = target: T1, Human CD8a; experiment: flow cytometry, HEK293F cells transfected with full-length human CD8a (GFP+ gate)
Procedure: (§2) Binding of parental and two of the humanized CD8a-binding polypeptides described above was assessed by flow cytometry on transfected HEK293F cells. The HEK293F cells were transiently transfected with a plasmid encoding full length human or cynomolgus monkey CD8α followed by an IRES and GFP. The transfected cells were plated in a 96-well plate at 30,000 cells per well in FACS buffer (PBS, 1% BSA, 0.1% NaN₃, pH 7.4). Test polypeptides were then diluted to 2× the final concentration of 500 nM and 3-, 4-, and 5-fold serial dilutions were made. FACS buffer with no polypeptide was used as a secondary antibody-only control. Test polypeptides were added to an equal volume of cells, and assay plates were incubated for 30 minutes at 4° C. After washing twice with 150 μL of FACS buffer per well, the cells were resuspended in FACS buffer with fluorescently-labeled anti-human Fc antibody diluted 1:2000. Assay plates were incubated at 4° C. for 20 minutes. After one additional wash with 150 μL of FACS buffer, bound polypeptide was detected by flow cytometry. Flow cytometric detection was performed on an Intellicyt iQue Plus. CD8a-expressing transfected cells were gated as GFP positive, and polypeptide binding was measured as median fluorescence at 647 nm. The data was plotted and analyzed using GraphPad Prism analysis software.

Cynomolgus monkey CD8a [4] = target: T2, Cynomolgus monkey CD8a; experiment: flow cytometry, HEK293F cells transfected with full-length cynomolgus CD8a (GFP+ gate)
Procedure: as §2

Human CD8a [5] = target: T1, Human CD8a; experiment: flow cytometry, isolated human T cells, CD4- gate, anti-human Fc detection
Procedure: FACS buffer with no polypeptide was used as a secondary antibody-only control. Polypeptide dilutions were added to an equal volume of cells, and assay plates were incubated for 30 minutes at 4° C. […] Assay plates were incubated at 4° C. for 20 minutes. […] The data was plotted and analyzed using GraphPad Prism analysis software. Flow cytometric detection was performed on an Intellicyt iQue Plus.

IL-2 receptor = target: T3, IL-2 receptor (human, UniProt P01589 22-272; P14784 27-551; P31785 23-369); experiment: cell-based or functional assay
T3 sequence (looked up) 1: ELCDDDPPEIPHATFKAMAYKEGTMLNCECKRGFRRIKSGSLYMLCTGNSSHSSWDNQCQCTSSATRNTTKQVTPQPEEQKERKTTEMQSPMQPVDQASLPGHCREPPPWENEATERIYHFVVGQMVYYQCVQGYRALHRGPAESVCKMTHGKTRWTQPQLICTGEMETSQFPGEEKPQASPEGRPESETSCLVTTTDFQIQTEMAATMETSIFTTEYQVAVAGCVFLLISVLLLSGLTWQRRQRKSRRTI
T3 sequence (looked up) 2: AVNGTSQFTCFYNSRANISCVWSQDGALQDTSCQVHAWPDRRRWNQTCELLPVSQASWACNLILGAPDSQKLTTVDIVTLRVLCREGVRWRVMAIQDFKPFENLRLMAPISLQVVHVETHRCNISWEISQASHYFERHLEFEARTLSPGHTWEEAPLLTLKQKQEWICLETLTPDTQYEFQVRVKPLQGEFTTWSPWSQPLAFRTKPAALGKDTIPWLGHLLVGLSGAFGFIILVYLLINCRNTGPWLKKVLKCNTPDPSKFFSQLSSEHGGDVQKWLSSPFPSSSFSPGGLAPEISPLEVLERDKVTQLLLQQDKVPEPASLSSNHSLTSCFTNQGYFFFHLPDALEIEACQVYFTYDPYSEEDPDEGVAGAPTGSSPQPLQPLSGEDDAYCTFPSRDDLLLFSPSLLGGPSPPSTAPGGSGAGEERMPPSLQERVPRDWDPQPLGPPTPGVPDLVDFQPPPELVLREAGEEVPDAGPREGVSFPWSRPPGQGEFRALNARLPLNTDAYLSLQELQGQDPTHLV
T3 sequence (looked up) 3: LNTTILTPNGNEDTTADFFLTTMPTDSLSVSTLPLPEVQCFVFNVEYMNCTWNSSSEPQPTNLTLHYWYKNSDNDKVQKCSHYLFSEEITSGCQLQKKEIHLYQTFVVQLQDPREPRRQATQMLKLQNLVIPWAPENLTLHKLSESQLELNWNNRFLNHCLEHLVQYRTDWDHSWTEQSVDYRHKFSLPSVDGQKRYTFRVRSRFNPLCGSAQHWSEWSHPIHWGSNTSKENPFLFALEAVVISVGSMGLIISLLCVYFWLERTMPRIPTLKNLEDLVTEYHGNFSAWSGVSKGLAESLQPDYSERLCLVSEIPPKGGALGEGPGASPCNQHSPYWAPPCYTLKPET

Cynomolgus monkey CD8a [6] = target: T2, Cynomolgus monkey CD8a; experiment: flow cytometry, cynomolgus PBMC, PI-CD3+CD4- gate
Procedure: (§3) Binding of four polypeptides comprising a humanized CD8a-binding VHH domain fused to an xELL fc region was assessed by flow cytometry on isolated human T cells and on isolated human or cynomolgus monkey peripheral blood mononuclear cells (PBMC). The isolated cells were plated in a 96-well plate at 200,000 cells per well for cynomolgus monkey PBMC, and 100,000 cells per well for human T cells in FACS buffer (PBS, 1% BSA, 0.1% NaN₃, pH 7.4). […] FACS buffer alone was used as a secondary antibody-only control. Polypeptide dilutions were added to an equal volume of cells, and assay plates were incubated for 30 minutes at 4° C. After washing twice with 150 μL of FACS buffer per well, the cells were resuspended in FACS buffer with a fluorescently labeled anti-human IgG antibody diluted 1:1000 to detect CD8α binding, fluorescently labeled anti-CD3 antibody (clone SP34.2, 1:50, for PBMC preparations only), and fluorescently labeled anti-CD4 antibody (clone OKT4, 1:100). Propidium iodide (PI) was added at 1:2000 to distinguish live cells from dead cells. Assay plates were incubated at 4° C. for 30 minutes. After one additional wash with 150 μL of FACS buffer CD8α binding was detected by flow cytometry on PI−(CD3+) CD4− cells. Binding was measured on these cell populations as mean fluorescence intensity (MFI) at 647 nm. Flow cytometric detection was performed on an ACEA Biosciences Novocyte-Quanteon Flow Cytometer. The data were plotted and analyzed using GraphPad Prism analysis software. The results are shown in Table 12 and 13 and in FIGS. 10A-D.

Cynomolgus monkey CD8a [7] = target: T2, Cynomolgus monkey CD8a; experiment: flow cytometry on CD8 T cells (PI- CD3+ CD4-) within cynomolgus monkey PBMC, fluorescent anti-human IgG secondary, MFI at 647 nm
Procedure: as §3, with “Flow cytometric detection was performed on an ACEA Biosciences Novocyte-Quanteon Flow Cytometer.” left out, “The results are shown in Table 12 and 13 and in FIGS. 10A-D.” left out

T1 sequence (P01732 22-235): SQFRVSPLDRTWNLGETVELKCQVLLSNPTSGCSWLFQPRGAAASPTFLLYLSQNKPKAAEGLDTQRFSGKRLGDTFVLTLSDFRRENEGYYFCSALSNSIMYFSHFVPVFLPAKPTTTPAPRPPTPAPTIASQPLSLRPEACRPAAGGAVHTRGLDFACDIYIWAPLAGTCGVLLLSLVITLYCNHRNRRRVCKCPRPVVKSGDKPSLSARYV

B1: hzB7v10-xELL-Fc (Fc fusion)
chain: EVQLVESGGGEVQPGGSLRLSCAASGFTFDDYAMSWVRQAPGKGLEWVSTITWEGEGTDYAESVKGRFTISRDNAKNTVYLQMSSLRAEDTAVYYCAKGSPELQYDSWGQGTLVTVKPGGDKTHTCPPCPAPGGPSVFLFPPKPKDTLMISRTPEVTCVVVDVSHEDPEVKFNWYVDGVEVHNAKTKPREEQYNSTYRVVSVLTVLHQDWLNGKEYKCKVSNKALPAPIEKTISKAKGQPREPQVYTLPPSRDELTKNQVSLTCLVKGFYPSDIAVEWESNGQPENNYKTTPPVLDSDGSFFLYSKLTVDKSRWQQGNVFSCSVMHEALHNHYTQKSLSLSPGK
notes: Homodimeric VHH-human IgG1 Fc xELL fusion
Kd (Human CD8a [1]): 85 pM | Kd (Cynomolgus monkey CD8a [2]): 73.7 pM | Kd (Human CD8a [3]): 565 pM | Kd (Cynomolgus monkey CD8a [4]): 97.2 pM | Kd (Human CD8a [5]): 106 pM

B2: hzB7v31-xELL-KiH Fc-IL-2 mutant (Fc fusion)
chain 1: QVQLVQSGGGEVQPGGSLRLSCAASGFTFDDYAMSWVRQAPGKGLEWVSTITWDAGGTYYAAPVKGRFTISRDNAKNTVYLQMSSLRAEDTAVYYCAKGSPELQYDTWGQGTLVTVKPDKTHTCPPCPAPGGPSVFLFPPKPKDTLMISRTPEVTCVVVDVSHEDPEVKFNWYVDGVEVHNAKTKPREEQYNSTYRVVSVLTVLHQDWLNGKEYKCKVSNKALPAPIEKTISKAKGQPREPQVCTLPPSRDELTKNQVSLSCAVKGFYPSDIAVEWESNGQPENNYKTTPPVLDSDGSFFLVSKLTVDKSRWQQGNVFSCSVMHEALHNRYTQKSLSLSPGK
chain 2: QVQLVQSGGGEVQPGGSLRLSCAASGFTFDDYAMSWVRQAPGKGLEWVSTITWDAGGTYYAAPVKGRFTISRDNAKNTVYLQMSSLRAEDTAVYYCAKGSPELQYDTWGQGTLVTVKPDKTHTCPPCPAPGGPSVFLFPPKPKDTLMISRTPEVTCVVVDVSHEDPEVKFNWYVDGVEVHNAKTKPREEQYNSTYRVVSVLTVLHQDWLNGKEYKCKVSNKALPAPIEKTISKAKGQPREPQVYTLPPCRDELTKNQVSLWCLVKGFYPSDIAVEWESNGQPENNYKTTPPVLDSDGSFFLYSKLTVDKSRWQQGNVFSCSVMHEALHNHYTQKSLSLSPG
EC50 of pSTAT5 induction in human CD8 T cells (IL-2 receptor): < 30 pM

B3: hzB7v29-xELL-Fc (Fc fusion)
chain: B2 chain 1 with G56E, C244Y, S261T, A263L, V302Y, R330H
notes: as for B1
Kd (Cynomolgus monkey CD8a [6]): 31.7 pM

B4: hzB7v35-xELL-Fc (Fc fusion)
chain: B2 chain 1 with Q13K, G56E, C244Y, S261T, A263L, V302Y, R330H
notes: as for B1
Kd (Cynomolgus monkey CD8a [6]): 23.6 pM

B5: hzB7v31-xELL-Fc (Fc fusion)
chain: B2 chain 1 with C244Y, S261T, A263L, V302Y, R330H
notes: Homodimeric VHH-human IgG1 Fc xELL fusion; also called CD8a-hzB7v31-Fc-xELL
EC50 (read off the curve) (Cynomolgus monkey CD8a [7]): ~50 pM | Kd (Cynomolgus monkey CD8a [6]): 38.9 pM

B6: hzB7v41-xELL-Fc (Fc fusion)
chain: B2 chain 1 with K117R, C244Y, S261T, A263L, V302Y, R330H
notes: as for B1
Kd (Cynomolgus monkey CD8a [6]): 49.9 pM
